Assay [1] deals with DENV1 envelope (E) glycoprotein, strain Nauru/West Pac/1974 (Dengue virus serotype 1, UniProt P17763). In words: cell-based or functional assay.
Assay [2] concerns the target DENV3 envelope (E) glycoprotein, wildtype DENV3 (strain not named at the place) (Dengue virus serotype 3).
The target in assay [3] is DENV3 envelope (E) glycoprotein, strain Phillippines/16562/1964 (Dengue virus serotype 3). Nature of the assay: live-virus capture ELISA. For orientation: An ELISA detects its analyte on a solid surface through an enzyme-linked reagent.

B1: DENV-144 (antibody, V domains shown)
VH: QVQLQESGPGLVKPSETLSLTCTVSGASISSYSWSWIRQPAGRGLEWLGRIYPSGNTNYSPSLKSRLTMSLDTSKNQFSMKLTSVSAADTAVYYCARDREQWPLYYGMDVWGQGTLVTVSS
VL: EIVLTQSPAILSLSPGDRATLSCRASQSVFTYLAWYQHKPGQAPRLLIYDASNRASGIPARFSGSGSGTDFTLTISSLEPEDFAVYYCQQRTKWPLAFGGGTKVEIK
In the case of B1, the “FRNT EC50, Vero-81 (WUSTL)” value in assay [1] came out at 0.329 µg/mL.

B2: DENV-419 (antibody, V domains shown)
VH: EMQLQESGPRLVKPSQTLSLTCTVSGGSTSSGGYYWSWFRQYPEKGLEWIGYIFSSVTTYYNPPLKSRVTISVDTSKNQFSLKLSSVTAADTAVYYCARSLHYYQSSGFLYWGRGIPVTVSA
VL: EIVLTQSPATLSLSPGDRATLSCRASQTVGDSLAWYQQKPGQAPRLLIYDVSNRATGIPARFSGSGSGTDFTLTISSLEPEDFAVYYCQQRASFVTFGRGTKVDIK
B2: the FRNT EC50, Vero-81 in assay [2] was less than 0.035 µg/mL. For the same molecule, in assay [3], the concentration giving a half-maximal response (EC50) – broadly, the concentration at which the effect is half-maximal – is 0.0444 µg/mL.

The values are drawn from patent publication US20230078330A1, “HUMAN ANTI-DENGUE ANTIBODIES AND METHODS OF USE THEREFOR” (published 2023).
